Literature values in PMC3091359.
pKd: −log10 of the molar value.

Molecular target: (Pro)renin (Homo sapiens) (UniProt P00797)
Chain of UniProt P00797 (P00797 67-406): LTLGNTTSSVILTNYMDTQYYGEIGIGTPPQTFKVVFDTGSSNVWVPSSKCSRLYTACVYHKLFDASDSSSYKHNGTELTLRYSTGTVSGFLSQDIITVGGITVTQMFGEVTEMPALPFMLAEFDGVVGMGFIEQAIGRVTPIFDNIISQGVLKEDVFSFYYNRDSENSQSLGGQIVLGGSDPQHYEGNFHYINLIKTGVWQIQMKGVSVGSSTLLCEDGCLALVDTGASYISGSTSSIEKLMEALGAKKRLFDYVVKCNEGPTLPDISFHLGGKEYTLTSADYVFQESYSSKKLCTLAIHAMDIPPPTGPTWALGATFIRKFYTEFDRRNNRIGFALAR

pKd: 8.43
Substance: (Pro)renin receptor (from UniProt Q6AXS4)
